{"source": "the supplement of paper PMC9112550", "about": "“Optimization of the antimicrobial peptide Bac7 by deep mutational scanning” (BMC Biology, 2022);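 note: peptides expressed intracellularly from a pBAD plasmid library in pooled LB shake-flask culture, induced with 0.3% L-arabinose, DNA abundance read by NGS, three biological replicates, DESeq2 with apeglm shrinkage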", "data": [{"tested_on": "Escherichia coli TOP10", "assay": "shrunken log2 fold change of peptide-encoding DNA abundance (4.5 h post-induction vs induction); higher = less antimicrobial activity (less host growth inhibition)", "details": "time post-induction: 4.5 h; library: site-saturation at positions 5, 18, 19, 20", "values": [{"sequence": "RRIRHRPPRLPRPRPRPYPSPRP", "shrunken log2 fold change": -0.457}, {"sequence": "RRIRGRPPRLPRPRPRPMHWPRP", "shrunken log2 fold change": 0.382}, {"sequence": "RRIRLRPPRLPRPRPRPVIVPRP", "shrunken log2 fold change": -0.0265}, {"sequence": "RRIRHRPPRLPRPRPRPNQWPRP", "shrunken log2 fold change": -0.227}, {"sequence": "RRIRARPPRLPRPRPRPWEWPRP", "shrunken log2 fold change": 0.0233}, {"sequence": "RRIRYRPPRLPRPRPRPMYTPRP", "shrunken log2 fold change": -0.597}, {"sequence": "RRIRKRPPRLPRPRPRPNQSPRP", "shrunken log2 fold change": 0.341}, {"sequence": "RRIRQRPPRLPRPRPRPKHRPRP", "shrunken log2 fold change": -0.0509}, {"sequence": "RRIRERPPRLPRPRPRPAPNPRP", "shrunken log2 fold change": 0.258}, {"sequence": "RRIRCRPPRLPRPRPRPYIFPRP", "shrunken log2 fold change": -0.773}, {"sequence": "RRIRWRPPRLPRPRPRPARDPRP", "shrunken log2 fold change": 0.377}, {"sequence": "RRIRRRPPRLPRPRPRPNMSPRP", "shrunken log2 fold change": 2.14}, {"sequence": "RRIRGRPPRLPRPRPRPNGSPRP", "shrunken log2 fold change": -0.0904}, {"sequence": "RRIRPRPPRLPRPRPRPWSYPRP", "shrunken log2 fold change": -0.214}, {"sequence": "RRIRSRPPRLPRPRPRPGIHPRP", "shrunken log2 fold change": 0.115}, {"sequence": "RRIRHRPPRLPRPRPRPNVWPRP", "shrunken log2 fold change": 0.0763}, {"sequence": "RRIRSRPPRLPRPRPRPHQSPRP", "shrunken log2 fold change": -0.198}, {"sequence": "RRIRHRPPRLPRPRPRPYSPPRP", "shrunken log2 fold change": -0.0769}, {"sequence": "RRIRIRPPRLPRPRPRPSRVPRP", "shrunken log2 fold change": -0.0608}, {"sequence": "RRIRCRPPRLPRPRPRPRKTPRP", "shrunken log2 fold change": 0.103}, {"sequence": "RRIRDRPPRLPRPRPRPMCGPRP", "shrunken log2 fold change": 1.12}, {"sequence": "RRIRTRPPRLPRPRPRPVTKPRP", "shrunken log2 fold change": 0.0906}, {"sequence": "RRIRQRPPRLPRPRPRPDKQPRP", "shrunken log2 fold change": 0.0312}, {"sequence": "RRIRYRPPRLPRPRPRPCPWPRP", "shrunken log2 fold change": -0.227}, {"sequence": "RRIRQRPPRLPRPRPRPSTLPRP", "shrunken log2 fold change": -0.319}, {"sequence": "RRIRIRPPRLPRPRPRPKLNPRP", "shrunken log2 fold change": 0.0573}, {"sequence": "RRIRRRPPRLPRPRPRPRDNPRP", "shrunken log2 fold change": 0.15}, {"sequence": "RRIRQRPPRLPRPRPRPVRTPRP", "shrunken log2 fold change": 0.0701}, {"sequence": "RRIRGRPPRLPRPRPRPCGRPRP", "shrunken log2 fold change": 0.799}, {"sequence": "RRIRFRPPRLPRPRPRPWNMPRP", "shrunken log2 fold change": -0.24}, {"sequence": "RRIRLRPPRLPRPRPRPYTYPRP", "shrunken log2 fold change": -0.235}, {"sequence": "RRIRSRPPRLPRPRPRPNPKPRP", "shrunken log2 fold change": 0.0189}, {"sequence": "RRIRQRPPRLPRPRPRPRDTPRP", "shrunken log2 fold change": 0.0606}, {"sequence": "RRIRLRPPRLPRPRPRPPGCPRP", "shrunken log2 fold change": 0.558}, {"sequence": "RRIRGRPPRLPRPRPRPSPTPRP", "shrunken log2 fold change": 0.828}, {"sequence": "RRIRGRPPRLPRPRPRPWPIPRP", "shrunken log2 fold change": -0.095}, {"sequence": "RRIRDRPPRLPRPRPRPSCGPRP", "shrunken log2 fold change": 0.301}, {"sequence": "RRIRGRPPRLPRPRPRPYPSPRP", "shrunken log2 fold change": -0.111}, {"sequence": "RRIRQRPPRLPRPRPRPKSAPRP", "shrunken log2 fold change": -0.0082}, {"sequence": "RRIRARPPRLPRPRPRPNYQPRP", "shrunken log2 fold change": -0.418}, {"sequence": "RRIRQRPPRLPRPRPRPVDKPRP", "shrunken log2 fold change": -0.0881}, {"sequence": "RRIRIRPPRLPRPRPRPESAPRP", "shrunken log2 fold change": 0.0116}, {"sequence": "RRIRRRPPRLPRPRPRPYWLPRP", "shrunken log2 fold change": -0.578}, {"sequence": "RRIRIRPPRLPRPRPRPPLKPRP", "shrunken log2 fold change": -0.105}, {"sequence": "RRIRPRPPRLPRPRPRPNTNPRP", "shrunken log2 fold change": -0.329}, {"sequence": "RRIRFRPPRLPRPRPRPKMPPRP", "shrunken log2 fold change": -0.0572}, {"sequence": "RRIRYRPPRLPRPRPRPNMRPRP", "shrunken log2 fold change": 0.117}, {"sequence": "RRIRKRPPRLPRPRPRPIHDPRP", "shrunken log2 fold change": 0.00115}, {"sequence": "RRIRARPPRLPRPRPRPDRAPRP", "shrunken log2 fold change": 0.642}, {"sequence": "RRIRNRPPRLPRPRPRPAQFPRP", "shrunken log2 fold change": 0.0855}, {"sequence": "RRIRHRPPRLPRPRPRPFHDPRP", "shrunken log2 fold change": -0.152}, {"sequence": "RRIRSRPPRLPRPRPRPAHVPRP", "shrunken log2 fold change": -0.0302}, {"sequence": "RRIRDRPPRLPRPRPRPQFPPRP", "shrunken log2 fold change": 0.0234}, {"sequence": "RRIRYRPPRLPRPRPRPMVNPRP", "shrunken log2 fold change": -0.0376}, {"sequence": "RRIRTRPPRLPRPRPRPWQLPRP", "shrunken log2 fold change": -0.189}, {"sequence": "RRIRTRPPRLPRPRPRPCFYPRP", "shrunken log2 fold change": -0.351}, {"sequence": "RRIRTRPPRLPRPRPRPEKSPRP", "shrunken log2 fold change": 0.288}, {"sequence": "RRIRDRPPRLPRPRPRPRQHPRP", "shrunken log2 fold change": 0.153}, {"sequence": "RRIRARPPRLPRPRPRPTQYPRP", "shrunken log2 fold change": 0.116}, {"sequence": "RRIRARPPRLPRPRPRPVQEPRP", "shrunken log2 fold change": 0.509}, {"sequence": "RRIRFRPPRLPRPRPRPTFIPRP", "shrunken log2 fold change": -0.44}, {"sequence": "RRIRFRPPRLPRPRPRPGREPRP", "shrunken log2 fold change": 0.0157}, {"sequence": "RRIRQRPPRLPRPRPRPAGRPRP", "shrunken log2 fold change": 0.978}, {"sequence": "RRIRRRPPRLPRPRPRPQFEPRP", "shrunken log2 fold change": 0.16}, {"sequence": "RRIRWRPPRLPRPRPRPIWIPRP", "shrunken log2 fold change": -0.186}, {"sequence": "RRIRDRPPRLPRPRPRPVGIPRP", "shrunken log2 fold change": -0.0542}, {"sequence": "RRIRDRPPRLPRPRPRPLKLPRP", "shrunken log2 fold change": 0.0229}, {"sequence": "RRIRPRPPRLPRPRPRPIEEPRP", "shrunken log2 fold change": -0.0376}, {"sequence": "RRIRYRPPRLPRPRPRPSCNPRP", "shrunken log2 fold change": -1.43}, {"sequence": "RRIRCRPPRLPRPRPRPYHAPRP", "shrunken log2 fold change": -0.585}, {"sequence": "RRIRTRPPRLPRPRPRPLYKPRP", "shrunken log2 fold change": -0.274}, {"sequence": "RRIRWRPPRLPRPRPRPSKRPRP", "shrunken log2 fold change": 0.149}, {"sequence": "RRIRVRPPRLPRPRPRPQQAPRP", "shrunken log2 fold change": -0.0616}, {"sequence": "RRIRRRPPRLPRPRPRPCIEPRP", "shrunken log2 fold change": 0.131}, {"sequence": "RRIRRRPPRLPRPRPRPVGAPRP", "shrunken log2 fold change": 0.592}, {"sequence": "RRIRPRPPRLPRPRPRPHQPPRP", "shrunken log2 fold change": -0.129}, {"sequence": "RRIRERPPRLPRPRPRPVRAPRP", "shrunken log2 fold change": 0.287}, {"sequence": "RRIRCRPPRLPRPRPRPQWQPRP", "shrunken log2 fold change": 0.0413}, {"sequence": "RRIRIRPPRLPRPRPRPHMQPRP", "shrunken log2 fold change": -0.169}, {"sequence": "RRIRVRPPRLPRPRPRPSFMPRP", "shrunken log2 fold change": -0.384}, {"sequence": "RRIRHRPPRLPRPRPRPLFYPRP", "shrunken log2 fold change": -0.702}, {"sequence": "RRIRWRPPRLPRPRPRPKKEPRP", "shrunken log2 fold change": -0.224}, {"sequence": "RRIRGRPPRLPRPRPRPFECPRP", "shrunken log2 fold change": 0.0132}, {"sequence": "RRIRGRPPRLPRPRPRPVAKPRP", "shrunken log2 fold change": 0.961}, {"sequence": "RRIRPRPPRLPRPRPRPMDCPRP", "shrunken log2 fold change": -0.00833}, {"sequence": "RRIRFRPPRLPRPRPRPEHQPRP", "shrunken log2 fold change": -0.1}, {"sequence": "RRIRQRPPRLPRPRPRPTGAPRP", "shrunken log2 fold change": 0.412}, {"sequence": "RRIRLRPPRLPRPRPRPHQDPRP", "shrunken log2 fold change": -0.308}, {"sequence": "RRIRRRPPRLPRPRPRPFGNPRP", "shrunken log2 fold change": -0.18}, {"sequence": "RRIRPRPPRLPRPRPRPEPQPRP", "shrunken log2 fold change": 0.268}, {"sequence": "RRIRRRPPRLPRPRPRPHKTPRP", "shrunken log2 fold change": 0.107}]}]}
